Assays:
[1] = target: IgG binding protein (Protein A homolog SpsQ/SpsP) on MRSP S. pseudintermedius 88493 (Staphylococcus pseudintermedius); experiment: ELISA, coated S. pseudintermedius 88493, antibody 1.18E-12 M
[2] = target: Protein A on the surface of S. aureus Newman wild-type (Staphylococcus aureus (strain Newman)) (UniProt P38507); experiment: ELISA, coated S. aureus Newman, antibody 6.03E-10 M
[3] = target: IgG binding protein (Protein A homolog SpsQ/SpsP) on S. intermedius 27369 (Staphylococcus intermedius); experiment: ELISA, coated S. intermedius 27369, antibody 3.09E-07 M
[4] = target: IgG binding protein (Protein A homolog SpsQ/SpsP) on S. intermedius 27369 (Staphylococcus intermedius); experiment: ELISA, coated S. intermedius 27369, antibody 7.54E-11 M
[5] = target: IgG binding protein (Protein A homolog SpsQ/SpsP) on MRSP S. pseudintermedius 88493 (Staphylococcus pseudintermedius); experiment: ELISA, coated S. pseudintermedius 88493, antibody 4.82E-09 M
[6] = target: Protein A on the surface of S. aureus Newman wild-type (Staphylococcus aureus (strain Newman)) (UniProt P38507); experiment: ELISA, coated S. aureus Newman, antibody 1.18E-12 M
[7] = target: IgG binding protein (Protein A homolog SpsQ/SpsP) on S. intermedius 27369 (Staphylococcus intermedius); experiment: ELISA, coated S. intermedius 27369, antibody 3.86E-08 M
[8] = target: IgG binding protein (Protein A homolog SpsQ/SpsP) on MRSP S. pseudintermedius 88493 (Staphylococcus pseudintermedius); experiment: ELISA, coated S. pseudintermedius 88493, antibody 7.54E-11 M
[9] = target: IgG binding protein (Protein A homolog SpsQ/SpsP) on S. intermedius 27369 (Staphylococcus intermedius); experiment: ELISA, coated S. intermedius 27369, antibody 9.42E-12 M
[10] = target: Protein A on the surface of S. aureus Newman wild-type (Staphylococcus aureus (strain Newman)) (UniProt P38507); experiment: ELISA, coated S. aureus Newman, antibody 4.82E-09 M
[11] = target: Protein A on the surface of S. aureus Newman wild-type (Staphylococcus aureus (strain Newman)) (UniProt P38507); experiment: ELISA, coated S. aureus Newman, antibody 3.09E-07 M
[12] = target: IgG binding protein (Protein A homolog SpsQ/SpsP) on MRSP S. pseudintermedius 88493 (Staphylococcus pseudintermedius); experiment: ELISA, coated S. pseudintermedius 88493, antibody 3.86E-08 M
[13] = target: Protein A on the surface of S. aureus Newman wild-type (Staphylococcus aureus (strain Newman)) (UniProt P38507); experiment: ELISA, coated S. aureus Newman, antibody 7.54E-11 M
[14] = target: IgG binding protein (Protein A homolog SpsQ/SpsP) on S. pseudintermedius AHDRCC 98200 (Staphylococcus pseudintermedius); experiment: ELISA, coated S. pseudintermedius 98200, antibody 1.18E-12 M
[15] = target: IgG binding protein (Protein A homolog SpsQ/SpsP) on S. pseudintermedius AHDRCC 98200 (Staphylococcus pseudintermedius); experiment: ELISA, coated S. pseudintermedius 98200, antibody 1.47E-13 M
[16] = target: IgG binding protein (Protein A homolog SpsQ/SpsP) on S. intermedius 27369 (Staphylococcus intermedius); experiment: ELISA, coated S. intermedius 27369, antibody 6.03E-10 M
[17] = target: IgG binding protein (Protein A homolog SpsQ/SpsP) on S. intermedius 27369 (Staphylococcus intermedius); experiment: ELISA, coated S. intermedius 27369, antibody 1.18E-12 M
[18] = target: Protein A on the surface of S. aureus Newman wild-type (Staphylococcus aureus (strain Newman)) (UniProt P38507); experiment: ELISA, coated S. aureus Newman, antibody 3.86E-08 M
[19] = target: Protein A on the surface of S. aureus Newman wild-type (Staphylococcus aureus (strain Newman)) (UniProt P38507); experiment: ELISA, coated S. aureus Newman, antibody 1.47E-13 M
[20] = target: IgG binding protein (Protein A homolog SpsQ/SpsP) on MRSP S. pseudintermedius 88493 (Staphylococcus pseudintermedius); experiment: ELISA, coated S. pseudintermedius 88493, antibody 3.09E-07 M
[21] = target: Protein A on the surface of S. aureus Newman wild-type (Staphylococcus aureus (strain Newman)) (UniProt P38507); experiment: ELISA, coated S. aureus Newman, antibody 9.42E-12 M
[22] = target: IgG binding protein (Protein A homolog SpsQ/SpsP) on S. pseudintermedius AHDRCC 98200 (Staphylococcus pseudintermedius); experiment: ELISA, coated S. pseudintermedius 98200, antibody 4.82E-09 M
[23] = target: IgG binding protein (Protein A homolog SpsQ/SpsP) on S. intermedius 27369 (Staphylococcus intermedius); experiment: ELISA, coated S. intermedius 27369, antibody 4.82E-09 M
[24] = target: Protein A on the surface of S. aureus Newman wild-type (Staphylococcus aureus (strain Newman)) (UniProt P38507); experiment: cell-based or functional assay
[25] = target: IgG binding protein (Protein A homolog SpsQ/SpsP) on S. intermedius 27369 (Staphylococcus intermedius); experiment: cell-based or functional assay
[26] = target: IgG binding protein (Protein A homolog SpsQ/SpsP) on S. pseudintermedius AHDRCC 98200 (Staphylococcus pseudintermedius); experiment: cell-based or functional assay
[27] = target: IgG binding protein (Protein A homolog SpsQ/SpsP) on S. pseudintermedius AHDRCC 98200 (Staphylococcus pseudintermedius); experiment: ELISA, coated S. pseudintermedius 98200, antibody 6.03E-10 M
[28] = target: IgG binding protein (Protein A homolog SpsQ/SpsP) on S. pseudintermedius AHDRCC 98200 (Staphylococcus pseudintermedius); experiment: ELISA, coated S. pseudintermedius 98200, antibody 7.54E-11 M
[29] = target: IgG binding protein (Protein A homolog SpsQ/SpsP) on S. pseudintermedius AHDRCC 98200 (Staphylococcus pseudintermedius); experiment: ELISA, coated S. pseudintermedius 98200, antibody 9.42E-12 M
[30] = target: IgG binding protein (Protein A homolog SpsQ/SpsP) on S. pseudintermedius AHDRCC 98200 (Staphylococcus pseudintermedius); experiment: ELISA, coated S. pseudintermedius 98200, antibody 3.86E-08 M
[31] = target: IgG binding protein (Protein A homolog SpsQ/SpsP) on S. pseudintermedius AHDRCC 98200 (Staphylococcus pseudintermedius); experiment: ELISA, coated S. pseudintermedius 98200, antibody 3.09E-07 M
[32] = target: IgG binding protein (Protein A homolog SpsQ/SpsP) on MRSP S. pseudintermedius 88493 (Staphylococcus pseudintermedius); experiment: ELISA, coated S. pseudintermedius 88493, antibody 9.42E-12 M
[33] = target: IgG binding protein (Protein A homolog SpsQ/SpsP) on MRSP S. pseudintermedius 88493 (Staphylococcus pseudintermedius); experiment: ELISA, coated S. pseudintermedius 88493, antibody 1.47E-13 M
[34] = target: IgG binding protein (Protein A homolog SpsQ/SpsP) on MRSP S. pseudintermedius 88493 (Staphylococcus pseudintermedius); experiment: ELISA, coated S. pseudintermedius 88493, antibody 6.03E-10 M
[35] = target: IgG binding protein (Protein A homolog SpsQ/SpsP) on S. intermedius 27369 (Staphylococcus intermedius); experiment: ELISA, coated S. intermedius 27369, antibody 1.47E-13 M

Row | Substance | ELISA luminescent signal [1] | ELISA luminescent signal [2] | ELISA luminescent signal [3] | ELISA luminescent signal [4] | ELISA luminescent signal [5] | ELISA luminescent signal [6] | ELISA luminescent signal [7] | ELISA luminescent signal [8] | ELISA luminescent signal [9] | ELISA luminescent signal [10] | ELISA luminescent signal [11] | ELISA luminescent signal [12] | ELISA luminescent signal [13] | ELISA luminescent signal [14] | ELISA luminescent signal [15] | ELISA luminescent signal [16] | ELISA luminescent signal [17] | ELISA luminescent signal [18] | ELISA luminescent signal [19] | ELISA luminescent signal [20] | further results
1 | hIgG1*/* control (REGN4440) (antibody) | 6710 | 27500 | 11100 | 2510 | 7360 | 17100 | 3850 | 6370 | 775 | 19400 | 38800 | 6470 | 24400 | 2170 | 1120 | 3010 | 2210 | 27600 | 15500 | 14700 | ELISA luminescent signal [21]: 16700; ELISA luminescent signal [22]: 2410; ELISA luminescent signal [23]: 2490; median cfu/mL after 16 h in 50% normal human serum, mAb 270 ug/mL [24]: 7e+06 cfu/mL; median cfu/mL after 16 h in 50% normal human serum, mAb 270 ug/mL [25]: 8e+06 cfu/mL; median cfu/mL after 16 h in 50% normal human serum, mAb 270 ug/mL [26]: 7.5e+06 cfu/mL; ELISA luminescent signal [27]: 2760; ELISA luminescent signal [28]: 2240; ELISA luminescent signal [29]: 1170; ELISA luminescent signal [30]: 5100; ELISA luminescent signal [31]: 15200; ELISA luminescent signal [32]: 6150; ELISA luminescent signal [33]: 12300; ELISA luminescent signal [34]: 7080; ELISA luminescent signal [35]: 896
2 | hIgG1 control (REGN1932) (antibody) | 8920 | 509000 | 123000 | 2680 | 8950 | 30200 | 34800 | 7560 | 1610 | 652000 | 506000 | 14500 | 253000 | 2830 | 1480 | 5300 | 9740 | 434000 | 18600 | 43900 | ELISA luminescent signal [21]: 72500; ELISA luminescent signal [22]: 8040; ELISA luminescent signal [23]: 42100; ELISA luminescent signal [27]: 4770; ELISA luminescent signal [28]: 2590; ELISA luminescent signal [29]: 1460; ELISA luminescent signal [30]: 36400; ELISA luminescent signal [31]: 132000; ELISA luminescent signal [32]: 7980; ELISA luminescent signal [33]: 8190; ELISA luminescent signal [34]: 11000; ELISA luminescent signal [35]: 25300
